Results on one protein are retold here after article PMC3293846, “Optimization of Time-Course Experiments for Kinetic Model Discrimination” (PLoS ONE, 2012).

Substrate in this series: CC(=O)C=O
The series can be described thus: purified protein. It is filed as biochemical, Saccharomyces cerevisiae. The settings on record: two-substrate sequential model (model 2), co-substrate glutathione, 70 mM potassium phosphate pH 6.5, 30°C, no glyoxalase II.

A word on the Km: it is the substrate concentration at which the rate is half of its maximum.

B1: yeast glyoxalase I (EC 4.4.1.5); glyoxalase I from Saccharomyces cerevisiae (Sigma) (Saccharomyces cerevisiae S288C) (protein)
chain: MSTDSTRYPIQIEKASNDPTLLLNHTCLRVKDPARTVKFYTEHFGMKLLSRKDFEEAKFSLYFLSFPKDDIPKNKNGEPDVFSAHGVLELTHNWGTEKNPDYKINNGNEEPHRGFGHICFSVSDINKTCEELESQGVKFKKRLSEGRQKDIAFALGPDGYWIELITYSREGQEYPKGSVGNKFNHTMIRIKNPTRSLEFYQNVLGMKLLRTSEHESAKFTLYFLGYGVPKTDSVFSCESVLELTHNWGTENDPNFHYHNGNSEPQGYGHICISCDDAGALCKEIEVKYGDKIQWSPKFNQGRMKNIAFLKDPDGYSIEVVPHGLIA
notes: no tags or mass told
Regarding B1, the Km turned out to be 1200 ± 190 µM and the kcat entry is “(1.7±0.38)×10^5 min^−1”.
